Blank lines part the entries; values can stand above or below the molecule they belong to.
Key:
[1] = biological target: TSHR260-alkaline phosphatase (TSHR260-AP) (human) (UniProt P05187); test: TSHR260-AP bridge ELISA, full length TSHR on wells; 10 µg/mL, diluted in HBD
[2] = biological target: TSHR260-alkaline phosphatase (TSHR260-AP) (human) (UniProt P05187); test: TSHR260-AP bridge ELISA, full length TSHR on wells; 0.1 µg/mL, diluted in HBD
[3] = biological target: TSHR260-alkaline phosphatase (TSHR260-AP) (human) (UniProt P05187); test: TSHR260-AP bridge ELISA, full length TSHR on wells; 250 µg/mL, diluted in HBD
[4] = biological target: TSHR260-alkaline phosphatase (TSHR260-AP) (human) (UniProt P05187); test: TSHR260-AP bridge ELISA, full length TSHR on wells; 0.005 µg/mL, diluted in HBD
[5] = biological target: TSHR260-alkaline phosphatase (TSHR260-AP) (human) (UniProt P05187); test: TSHR260-AP bridge ELISA, full length TSHR on wells; 10 µg/mL, diluted in assay buffer
[6] = biological target: TSHR260-alkaline phosphatase (TSHR260-AP) (human) (UniProt P05187); test: TSHR260-AP bridge ELISA, full length TSHR on wells; 0.1 µg/mL, diluted in assay buffer
[7] = biological target: TSHR260-alkaline phosphatase (TSHR260-AP) (human) (UniProt P05187); test: TSHR260-AP bridge ELISA, full length TSHR on wells; 250 µg/mL, diluted in assay buffer
[8] = biological target: TSHR260-alkaline phosphatase (TSHR260-AP) (human) (UniProt P05187); test: TSHR260-AP bridge ELISA, full length TSHR on wells; 0.005 µg/mL, diluted in assay buffer
[9] = biological target: T1, human TSH receptor (full length), coated on tubes (human, UniProt P16473 22-764); test: competition with 125I-K1-18 IgG on TSHR coated tubes; 1 µg/mL, diluted in assay buffer
T1 construct: TSHR coated tubes as described in WO2004/050708A2; Exact preparation on the tubes is not detailed here; also called thyroid stimulating hormone receptor
Protocol: (§1) Binding inhibition assays were carried out using TSHR coated tubes as described in WO2004/050708A2. […] After aspiration, the tubes were washed and 100 μL of ¹²⁵I-labelled protein (5×10⁴ cpm) added and incubated for 1 hour at room temperature with shaking. The tubes were then aspirated, washed and counted in a gamma counter. Inhibition of labelled protein binding was calculated as 100×[1−(cpm bound in the presence of test material/cpm bound in the presence of control material)].

[10] = biological target: T1, human TSH receptor (full length), …; test: competition with 125I-K1-18 IgG on TSHR coated tubes; 3 µg/mL, diluted in assay buffer
Protocol: as §1

[11] = biological target: T1, human TSH receptor (full length), …; test: competition with 125I-K1-18 IgG on TSHR coated tubes; 10 µg/mL, diluted in assay buffer
Protocol: as §1

[12] = biological target: T1, human TSH receptor (full length), …; test: competition with 125I-K1-18 IgG on TSHR coated tubes; 30 µg/mL, diluted in assay buffer
Protocol: as §1

[13] = biological target: T1, human TSH receptor (full length), …; test: competition with 125I-K1-18 IgG on TSHR coated tubes; 0.1 µg/mL, diluted in assay buffer
Protocol: as §1

[14] = biological target: T1, human TSH receptor (full length), …; test: competition with 125I-K1-18 IgG on TSHR coated tubes; 0.3 µg/mL, diluted in assay buffer
Protocol: as §1

[15] = biological target: T1, human TSH receptor (full length), …; test: competition with 125I-K1-18 IgG on TSHR coated tubes; 1 µg/mL, diluted in HBD serum pool
Protocol: as §1

[16] = biological target: T1, human TSH receptor (full length), …; test: competition with 125I-K1-18 IgG on TSHR coated tubes; 100 µg/mL, diluted in assay buffer
Protocol: as §1

[17] = biological target: T1, human TSH receptor (full length), …; test: competition with 125I-K1-18 IgG on TSHR coated tubes; 3 µg/mL, diluted in HBD serum pool
Protocol: as §1

[18] = biological target: T1, human TSH receptor (full length), …; test: competition with 125I-K1-18 IgG on TSHR coated tubes; 0.01 µg/mL, diluted in assay buffer
Protocol: as §1

[19] = biological target: T1, human TSH receptor (full length), …; test: competition with 125I-K1-18 IgG on TSHR coated tubes; 0.03 µg/mL, diluted in assay buffer
Protocol: as §1

[20] = biological target: T1, human TSH receptor (full length), …; test: competition with 125I-K1-18 IgG on TSHR coated tubes; 10 µg/mL, diluted in HBD serum pool
Protocol: as §1

[21] = biological target: T1, human TSH receptor (full length), …; test: competition with 125I-K1-18 IgG on TSHR coated tubes; 30 µg/mL, diluted in HBD serum pool
Protocol: as §1

[22] = biological target: T1, human TSH receptor (full length), …; test: competition with 125I-K1-18 IgG on TSHR coated tubes; 0.001 µg/mL, diluted in assay buffer
Protocol: as §1

[23] = biological target: T1, human TSH receptor (full length), …; test: competition with 125I-K1-18 IgG on TSHR coated tubes; 0.003 µg/mL, diluted in assay buffer
Protocol: as §1

[24] = biological target: T1, human TSH receptor (full length), …; test: competition with 125I-K1-18 IgG on TSHR coated tubes; 0.1 µg/mL, diluted in HBD serum pool
Protocol: as §1

[25] = biological target: T1, human TSH receptor (full length), …; test: competition with 125I-K1-18 IgG on TSHR coated tubes; 0.3 µg/mL, diluted in HBD serum pool
Protocol: as §1

[26] = biological target: T1, human TSH receptor (full length), …; test: competition with 125I-K1-18 IgG on TSHR coated tubes; 100 µg/mL, diluted in HBD serum pool
Protocol: as §1

[27] = biological target: T1, human TSH receptor (full length), …; test: competition with 125I-K1-18 IgG on TSHR coated tubes; 0.01 µg/mL, diluted in HBD serum pool
Protocol: as §1

[28] = biological target: T1, human TSH receptor (full length), …; test: competition with 125I-K1-18 IgG on TSHR coated tubes; 0.03 µg/mL, diluted in HBD serum pool
Protocol: as §1

[29] = biological target: T1, human TSH receptor (full length), …; test: competition with 125I-K1-18 IgG on TSHR coated tubes; 0.001 µg/mL, diluted in HBD serum pool
Protocol: as §1

[30] = biological target: T1, human TSH receptor (full length), …; test: competition with 125I-K1-18 IgG on TSHR coated tubes; 0.003 µg/mL, diluted in HBD serum pool
Protocol: as §1

Mean absorbance at 405 nm (absorbance at 405 nm) [1]: -0.008
Mean absorbance at 405 nm (absorbance at 405 nm) [2]: -0.009
Mean absorbance at 405 nm (absorbance at 405 nm) [3]: -0.008
Mean absorbance at 405 nm (absorbance at 405 nm) [4]: -0.012
Mean absorbance at 405 nm (absorbance at 405 nm) [5]: 0.016
Mean absorbance at 405 nm (absorbance at 405 nm) [6]: -0.009
Mean absorbance at 405 nm (absorbance at 405 nm) [7]: 0.204
Mean absorbance at 405 nm (absorbance at 405 nm) [8]: 0
Molecule: 5C9 Fab

Inhibition of binding (%) [9]: 92%
Inhibition of binding (%) [10]: 92.9%
Inhibition of binding (%) [11]: 91.9%
Inhibition of binding (%) [12]: 93.1%
Inhibition of binding (%) [13]: 89.2%
Inhibition of binding (%) [14]: 91.5%
Inhibition of binding (%) [15]: 92.9%
Inhibition of binding (%) [16]: 94.5%
Inhibition of binding (%) [17]: 94.1%
Inhibition of binding (%) [18]: 6.8%
Inhibition of binding (%) [19]: 45.6%
Inhibition of binding (%) [20]: 95.1%
Inhibition of binding (%) [21]: 93.9%
Inhibition of binding (%) [22]: -1.7%
Inhibition of binding (%) [23]: 0.1%
Inhibition of binding (%) [24]: 55.6%
Inhibition of binding (%) [25]: 82.2%
Inhibition of binding (%) [26]: 95.3%
Inhibition of binding (%) [27]: 6.1%
Inhibition of binding (%) [28]: 17.8%
Inhibition of binding (%) [29]: 0%
Inhibition of binding (%) [30]: 2.1%
B3: K1-70 IgG (antibody, V domains shown)
VH: EVQLVQSGAEVKKPGQSLKISCKASGYSLTDNWIGWVRQKPGKGLEWMGIIYPGDSDTRYSPSFQGQVTISADKSINTAYLQWSSLKASDTAIYYCVGLDWNYNPLRYWGPGTLVTVSS
VL: QSVLTQPPSVSAAPGQKVTISCSGSSSDIGSNYVSWYQQFPGTAPKLLIYDNNKRPSAIPDRFSGSKSGTSATLGITGLQTGDEADYYCGTWDSRLGIAVFGGGTQLTVLG

Continued, molecule first:

B1: K1-18 IgG (antibody, V domains shown)
VH: EVQLVQSGAEVKKPGESLKISCKGSGYSFTNYWIGWVRQMPGKGLEWMGIIYPYDSDTRYSPSFEGQVTISADKSIRTAYLHWSSLKASDTAMYYCVRPRDGSYPYDAFDIWGQGTMVTVSS
VL: EIVLTQSPGTLSLSPGERATLSCRASQSVSNNYLAWYQQKPGQAPRLLIYGASSRATGIPDRFSGSGSGTDFTLTISRLEPEDFAVYYCQHCGSSLRAFGQGTKVEIKR
Inhibition of binding (%) [9]: 92.8%
Inhibition of binding (%) [10]: 93%
Inhibition of binding (%) [11]: 92.5%
Inhibition of binding (%) [12]: 93.8%
Inhibition of binding (%) [13]: 78.9%
Inhibition of binding (%) [14]: 90.9%
Inhibition of binding (%) [15]: 91.1%
Inhibition of binding (%) [16]: 94.5%
Inhibition of binding (%) [17]: 94%
Inhibition of binding (%) [18]: 14.9%
Inhibition of binding (%) [19]: 39.3%
Inhibition of binding (%) [20]: 94%
Inhibition of binding (%) [21]: 95.6%
Inhibition of binding (%) [22]: 6.9%
Inhibition of binding (%) [23]: 2.9%
Inhibition of binding (%) [24]: 49.4%
Inhibition of binding (%) [25]: 78.3%
Inhibition of binding (%) [26]: 96.1%
Inhibition of binding (%) [27]: 5.8%
Inhibition of binding (%) [28]: 15.1%
Inhibition of binding (%) [29]: 2.7%
Inhibition of binding (%) [30]: -0.3%

B2: K1-18 Fab (Fab, V domains shown)
VH: EVQLVQSGAEVKKPGESLKISCKGSGYSFTNYWIGWVRQMPGKGLEWMGIIYPYDSDTRYSPSFEGQVTISADKSIRTAYLHWSSLKASDTAMYYCVRPRDGSYPYDAFDIWGQGTMVTVSS
VL: EIVLTQSPGTLSLSPGERATLSCRASQSVSNNYLAWYQQKPGQAPRLLIYGASSRATGIPDRFSGSGSGTDFTLTISRLEPEDFAVYYCQHCGSSLRAFGQGTKVEIKR
Inhibition of binding (%) [9]: 77.5%
Inhibition of binding (%) [10]: 81.9%
Inhibition of binding (%) [11]: 81.8%
Inhibition of binding (%) [12]: 83%
Inhibition of binding (%) [13]: 56.7%
Inhibition of binding (%) [14]: 71.1%
Inhibition of binding (%) [15]: 80.2%
Inhibition of binding (%) [16]: 86.2%
Inhibition of binding (%) [17]: 83.4%
Inhibition of binding (%) [18]: 8.8%
Inhibition of binding (%) [19]: 24.8%
Inhibition of binding (%) [20]: 83%
Inhibition of binding (%) [21]: 85%
Inhibition of binding (%) [22]: -2.6%
Inhibition of binding (%) [23]: 0.8%
Inhibition of binding (%) [24]: 39%
Inhibition of binding (%) [25]: 65.5%
Inhibition of binding (%) [26]: 84.8%
Inhibition of binding (%) [27]: 1.8%
Inhibition of binding (%) [28]: 10.3%
Inhibition of binding (%) [29]: -1%
Inhibition of binding (%) [30]: 1%

— US20110300138A1 (published 2011)
